From the supplement of paper PMC9170038

Test system: K4 kissing-loop RNA reporter
Assay: apparent KD of K4 kissing-loop reporter; higher = weaker reporter binding
Conditions: Eterna round: R107
Experimental: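 RNA-MaP round R107: designed RNA switches with theophylline, tryptophan, arginine or FMN aptamers are transcribed on-chip within common flanks. They are titrated with a labelled K4 kissing-loop RNA reporter in RNA-MaP buffer (100 mM Tris pH 7.5, 80 mM KCl, 4 mM MgCl2), without ligand or with the indicated ligand. Median apparent KD per design.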

[1] = input ligand: theophylline 20 uM
[2] = input ligand: tryptophan 2.4 mM
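Also: bound reporter read as fluorescence of individual clusters on recovered sequencing chips by microscopy, with normalized cluster intensities fitted with a binding model.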

Row | Sequence | apparent KD of K4 kissing-loop reporter (input ligand: FMN 200 uM) [nM] | apparent KD of K4 kissing-loop reporter (input ligand: arginine 13.2 mM) [nM] | apparent KD of K4 kissing-loop reporter (input ligand: none) [nM] | apparent KD of K4 kissing-loop reporter [1] [nM] | apparent KD of K4 kissing-loop reporter [2] [nM]
1 | GCGGCCCAGACGGAUACCAGUGACCCGCUGGGAACCGCGGGCCCAGAGUGAUGUUCGGGACACCCUUGGCAGCCGCCUGGGUCGC [#2 Same State - Theophylline B Attempt #19 (HarryS)] | 732 | 293 | 491 | 606 | 448
2 | GCGUCCAUGUAUGAUACCAGACUUUUUUUAGUAGGUGACGAUAGUGAUGUUAUACGUCAAGUCCCUUGGCAGCAUGACCUAUUAU [theeternabot_exclusion_KL_Theo_B_23] | 423 | 461 | 418 | 694 | 587
3 | GCGUCGCAGGUCGCAGUACCAUCGCGGGAUACCAGCCCUGCUACCGGCCCUUGGCAGCCCGGUUAUCGGUUAGUGAUGUUAGCCA [theeternabot_sameState_KL_Theo_A_44] | 642 | 531 | 739 | 621 | 591
4 | GCUACCUAGGCAGGAUAUCGUAUUGAGUGAUGUUCAAUAACGGUCUACCAAAGGUAGACCGACCUUCGAGAAGGGCCUAGGUAGC | 143 | 163 | 193 | 174 | 166
5 | GCUACUGCUGAAGGAUAUAUCAAUAGAGUGAUGUUCUAUGUCGGUAGCCCGAAAGGGCUACCGACGGUAGAAGGUCAGCAGUAGC | 182 | 1090 | 1560 | 1120 | 960
6 | GCUAGCAUGGCAGGAUAUAGCUAUAGGAGUGAUGUUCCUUGGUAGGUGAGUGAUGUUCACUACCAACUAGAAGGGCCAUGCUAGC | 148 | 116 | 125 | 121 | 135
7 | GCUAGUGCCCGCUCGAAAGAGCGUGUGUGUAAGGAUAUCUAGUAAUAGAGAAGGUACGGAGUGAUGUUCCCACACGGGCACUAGC | 705 | 600 | 800 | 779 | 1060
8 | GCUAUGGUAGGAAGGAGCGCGGACGAUAUUUAUCGAGUGAUGUUCGAUUCAUUAAUUUGAACGCAGGUAGGUCGCCUACUAUAGC [Arginine B K4 29] | 138 | 148 | 160 | 134 | 161
9 | GCUAUGGUAGGAAGGAGCGCUAAUUUAUUUUUACGAGUGAUGUUCGGUAGUAGAUUGUUAAAGCAGGUAGGUCGCCUACUAUAGC [Arginine B K4 17] | 103 | 124 | 106 | 85.7 | 92.5
10 | GCUAUGGUAGGAAGGAGCGCUACUUUAUUUUUACGAGUGAUGUUCGGUAGUAGAGUGUUAAAGCAGGUAGGUCGCCUACUAUAGC [Arginine B K4 18] | 217 | 132 | 140 | 172 | 146
11 | GCUAUGGUAGGAAGGAGCGCUUAAUUAUUAAUAAGAGUGAUGUUCGAUAAUAAAUAUUUAUAGCAGGUAGGUCGCCUACUAUAGC [KL-SSArg B22] | 155 | 168 | 174 | 243 | 104
12 | GCUAUGGUAGGAAGGAGCGCUUAUUUAUUAAUAAGAGUGAUGUUCGAUAAUAAAUAUUUAUAGCAGGUAGGUCGCCUACUAUAGC [Arginine B K4 1] | 225 | 219 | 232 | 227 | 204
13 | GCUAUGGUAGGAAGGAGCGCUUAUUUAUUAAUAAGAGUGAUGUUCGAUAAUAGAUAUUUAUAGCAGGUAGGUCGCCUACUAUAGC [Arginine B K4 11] | 290 | 278 | 293 | 321 | 165
14 | GCUAUGGUUGGAAGGAGCGUUGGGUUACUAAUAAGAGUGAUGUUCGAUAGUAGGUAAUUGUAGCAGGUAGGUCGCCAACUAUAGC [KL-Arg B26] | 290 | 304 | 329 | 234 | 211
15 | GCUAUGGUUGGAAGGAGCGUUUAAUUACUAAUAAGAGUGAUGUUCGAUAGUAGGUAAUUGUAGCAGGUAGGUCGCCAACUAUAGC [KL-Arg B25] | 215 | 232 | 186 | 222 | 224
16 | GCUGAUCGUUUUCCACGAUGCGGCUAAUAAAAGGAUAUUGGUAUAUCAAGAAGGUUUGUUCUGUGUAGUGAUGUUGCACCGUGUU [theeternabot_sameState_KL_FMN_A_28] | 77.5 | 101 | 80.5 | 111 | 72.5

Row | Sequence | apparent KD of K4 kissing-loop reporter (input ligand: FMN 200 uM) [nM] | apparent KD of K4 kissing-loop reporter (input ligand: arginine 13.2 mM) [nM] | apparent KD of K4 kissing-loop reporter (input ligand: none) [nM] | apparent KD of K4 kissing-loop reporter [1] [nM] | apparent KD of K4 kissing-loop reporter [2] [nM]
17 | GCUUUCCGUGCGGCCGCCACUGAUCUAAGUGAUGUUUAGAUCGCAUUCGAACCGGUUACCCAGAGCAGGACCGGGCACCAGCGCU [theeternabot_exclusion_KL_Trp_B_35] | 97 | 84.9 | 89.8 | 90.1 | 91.9
18 | GGACGAGUGAUGUUCGUUAUUAUGCAUUCAGAGGAUAUAGGAUUAGCUAGAAGGCUGAAUCAAUCUUCGAGUGAUGUUCGAGGAU [Same State FMN A GF 10] | 146 | 146 | 154 | 151 | 142
19 | GGACGCCGGUCGGCCGCCACUCACAGCAGUGAUGUUGCUGAGCUUGUAGCGGAGUGAUGUUCCGAGAGGACCGGGACUGCAGUUU [Same State Tryptophan B GF 10] | 522 | 506 | 739 | 550 | 532
20 | GGAGCAGGUGAAGGAUAUCCCGGGCCAGAGUGAUGUUCUGGAUCCCUUGCCGUGUCUAAACGGGUGGGAGAAGGUCACUGAUAAG [Erinxe] | 137 | 187 | 213 | 178 | 231
21 | GGAGGGAUCUCGGCCGCCACUCAUAAGAAAUGGGCCUCAGAAAUAUAGUGAUGUUAUAUAAAGAAGAGGACCGGGAGAAAGAAGG [ExTryptoB.D] | 197 | 128 | 129 | 203 | 131
22 | GGAGUUACCUGGGAUACCAGUCGGAGUCCGAGAGCUCGGAGUGAUGUUCUGGGAUGUUUCGGCCCUUGGCAGCUCUGGGACUCCC [#2 Exclusion - Theophylline B Attempt #10 (HarryS)] | 220 | 181 | 241 | 249 | 198
23 | GGAUAGGACAGAGGAUAUCCAGUGAUGUUGGAGAAUUCUCCUUAAACAUGUCACAAAAGUGGCAUGGGAGAAGGCUGUCCUAUCG [Mod of Eli's FmnBX 29 v1] | 217 | 123 | 122 | 138 | 105
24 | GGAUAGGACAGAGGAUAUCUCUGAGGCAAGAAAACUUGUCUCUAAAGGGAUGACUCAGUGAUGUUGAGAGAAGGCUGUCCUAUCG [FmnBX 11 - #SwitchBubble #StaticStem] | 295 | 141 | 154 | 140 | 149
25 | GGAUAGGACAGAGGAUAUGGAGAGUCUACAAAGUAGGCUCAUAAUCCUUGAAUGGAAGUGAUGUUUCUAGAAGGCUGUCCUAUCG [FmnBX 18 - #SwitchBubble #StaticStem #Palindromic] | 758 | 135 | 143 | 148 | 136
26 | GGAUAGGACAGAGGAUAUGGAGCUAGGCAAGAAUAACUUGUCUAGCAAUCCAUGAGGAGUGAUGUUCCAGAAGGCUGUCCUAUCG [FmnBX 2 - #SwitchBubble #StraticStem #DoubleMagnetSystem] | 825 | 156 | 155 | 163 | 116
27 | GGAUAGGACAGAGGAUAUGGUAGUGAUGUUACCAAACUGGUUACUCUUGUCAGAAAACUGGCAUCUCUAGAAGGCUGUCCUAUCG [KL-XFMN-B9] | 389 | 156 | 149 | 144 | 168
28 | GGAUAGGACAGAGGAUAUGGUAGUGAUGUUACCAAACUGGUUAUCAAUGUUAGAAAAUUGACAAAUCCAGAAGGCUGUCCUAUCG [KL-XFMN-B14] | 198 | 60.7 | 66.4 | 54.8 | 62
29 | GGAUAGGACAGAGGAUAUGGUGCUAGGCAAGAAUAACUUGUCUAGCAAUCCAUGAGGAGUGAUGUUCCAGAAGGCUGUCCUAUCG [FmnBX 3 - #SwitchBubble #StraticStem #DoubleMagnetSystem] | 440 | 132 | 137 | 136 | 118
30 | GGAUAGGACAUAGGAUAUGGUAGUGAUGUUACCAAACUGGUUAAACAUGUCAGAAAACUGGCAUGACCAGAAGGGUGUCCUAUCG [FmnBX 27 U11+G75] | 73 | 54.2 | 61.8 | 45.9 | 64.3
31 | GGAUAGGAUAGAGGAUAUGGAUUAGGCAAGAAUAACUUGUCAUGUAAAUCCAUGAGGAGUGAUGUUCCAGAAGGCUGUCCUAUCG [MatMod 7 - Jieux - Exclusion - FMN B] | 349 | 116 | 114 | 112 | 90.7
